From the DeepSol protein solubility set come the findings set out here.

This series can be described thus: soluble on expression in E. coli; label from the status in PepcDB or PDB records.
As to “MGSDKIHHHHHHMMRRRLPSLIALRAFEAVGRTGSVRAAGDELAVSHTVVSRHLQNLQKFLGVALVRGEGRGVILTEAGVSFHAQISQAFDIIARATTAARPSSLPTLNIWCIPGIANRLLLSRLPELTGPPRNWEVNLQPTLTHPDLSRAEADAEIVYADVIDSRGPLMSEILVRPRVFPVASPAYLARYPAITSLEDLSQIALIHEESTMQWTRWFELAGLDDLPPLRGQRLWHAHLAIEAARLGQGVALANDVLVEEDLRSGALVEVITSSVYMETYQLVALKERWDDPAIVALRNWLKQVLAELE”, the “soluble on expression in E. coli” value is “not soluble”.

Take “MGSDKIHHHHHHMSLPETPTIRIGMAMWSHPGWKTVFPGLDAEARLTAYSRVFGTVEGNTSFYALPSAQQVSIWQRATPEDFRFTFKLPRRITHELSLRNCREEVLQFFRLFEPLMAKTGVWKIQLPARFGPESLSVLTQFLSLLPEGIGLGVEVRHRAFFAKGEAEKDFNRLLMDKGINRIIMDTRPVFALPAINEAITDAHQKKPRVPVHPLATGAHPVVRFIAQPHTPAAWGPGGKPADLGCADNLAFFAPWLGKLAGWLAEGRSPYLFIHTPDNSDAPLLASELAKQVAAHLQALHPGLPIPSVMLDSAESDGGQIGLGLQ”: the “soluble on expression in E. coli” value is given as “not soluble”.

Turning to “MSAPSRTVLRELTATKYVANYTDEYQLETARAGCSALPPQPNINHDAIIEGHGEDVELVEDKNYRSLHRIDETPKLVDKKPSKAIIRDEAVKVLRDIQTMPIENLRLKRYDFFSQRWFNTTRESEKALVEHVLLHPNQRPHYFAAQCRMLSAEDISSLILTSLLAEPKETGQNVVRFAIQAKTAMPFQQLFAILEKLEMEIEGFQMTDSFVVATLIRSQSKSTTTRRLRTTNCREYGNLEPGLDSQGRLMASTASITCSIRGKRHVETRIVYNNNSSARDPFRRYRYIELEQTVKCMNRRVQIVEEPVEFHEFEVENDMVSLRNGMVLVDDLISFLETFELDEE”, the “soluble on expression in E. coli” value was “not soluble”.

For “MKKEKAIVVFSGGQDSTTCLLWALKEFEEVETVTFHYNQRHSQEVEVAKSIAEKLGVKNHLLDMSLLNQLAPNALTRNDIEIEVKDGELPSTFVPGRNLVFLSFASILAYQIGARHIITGVCETDFSGYPDCRDEFVKSCNVTVNLAMEKPFVIHTPLMWLNKAETWKLADELGALDFVKNNTLTCYNGIIADGCGECPACHLRSKGYEEYMVMKGERA”, the “soluble on expression in E. coli” value was “soluble”.

As for “MGSDKIHHHHHHMTDRLFTETLLAAVGEDLLRTRLSEEFIRVDLGAETVAPLLTFDALSELLSTHQLEPPRLRLHRAGAPVPLDNYTEVGEASGVQRRLVRPEALYAQLRQGASLVLDGIDRIHPPIRAAADDLMRLVHERVQVNLYLIWGDSHGFNTHWDDHDTFIVQVAGTKHWQVHGQGTRPYPMKEDIDHSHQPPEGTVWEGTVRAGEVLHVPRGWWHTVTGTGDVSMHLTFGFTRATGVDWARWLVDRLYEVEFARRDLPRFATPEERRKHQHELLRHLMDLAEQHGLDEFLTDRDSRFPRRQSFSLPWAVDGATPQPDTVVEFTPILPSALRDEGQKVALTVAGRRYTFAKAAQPLLEVLVDARVLTVAELAERAGAEVETAAALARVLVQHHLVLLRSTS”, the “soluble on expression in E. coli” value is listed as “not soluble”.

Regarding “MAHHHHHHMLWVDKYRPKSLVEVELYPELTEVLKRLAESQDLPHLLLYGPSGTGKKTRAMAVLHHVYGPSVYSLRLEHRSVQVTDSKVVDIATLSSPHHIDINPSDAGNYDRVIVMQMIREIAQTVSLQSSTSNGVKYKVVLLNEVDKMGRAAQHALRRTMEKYMSTCRLVLICNSTSRLIAPLRSRCLAVRVPSHSKENLTKVIRGVCERENRPLPSPEFMATVTQRSEGNLRRALLMVEAAAMTKVDFSGNGADIPQPDWRVFLDEIANDILSEQTPKKLHEIRGKFYNLLGQCVSGELILRLVLEKLMSAVDPALRRPLVALAAQYDHNMKLGTKTIVHLEAFAAGVMQLLKQK”, the “soluble on expression in E. coli” value is reported as “not soluble”.

In the case of “QLPTIYAITPTYSRPVQKAELTRLANTFRQVAQLHWILVEDAAARSELVSRFLARAGLPSTHLHVPTPRRYKRPGLPRATEQRNAGLAWLRQRHQHQRAQPGVLFFADDDNTYSLELFQEMRTTRKVSVWPVGLVGGRRYERPLVENGKVVGWYTGWRADRPFAIDMAGFAVSLQVILSNPKAVFKRRGSQPGMQESDFLKQITTVEELEPKANNCTKVLVWHTRTEKVNLANEPKYHLDTVKIEV”, the “soluble on expression in E. coli” value is “soluble”.

“MTDYFTAHDVLKKVEGLNSLSTLNKWANFIQKECDYQFHYDYIRFASHTRTKRTINHRKTRMFSLEEIQKFQKVIKLIPILGRNTSLRKLFDKKHHLDTMNHSELLTEIINQIEVKLANKEELFQALTKKYQQLERSYQTLEQRLAQLEESLSTQEQTSSGWFRRKR”: the “soluble on expression in E. coli” value is “not soluble”.

Turning to “GMNPENWLLLRRVVRFGDTDAAGVMHFHQLFRWCHESWEESLESYGLNPADIFPGSRKSEVTPEVALPIIHCQADFRRPIHTGDALAMELRPERLNPNSFQVHFEFRCEEQIAAHALIRHLAINAQTRHRCALPEGIDRWLEASGVGKIGSI”, the “soluble on expression in E. coli” value is given as “soluble”.

With “MTQFNPVDHPHRRYNPLTGQWILVSPHRAKRPWQGAQETPAKQVLPAHDPDCFLCAGNVRVTGDKNPDYTGTYVFTNDFAALMSDTPDAPESHDPLMRCQSARGTSRVICFSPDHSKTLPELSVAALTEIVKTWQEQTAELGKTYPWVQVFENKGAAMGCSNPHPHGQIWANSFLPNEAEREDRLQKEYFAEQKSPMLVDYVQRELADGSRTVVETEHWLAVVPYWAAWPFETLLLPKAHVLRITDLTDAQRSDLALALKKLTSRYDNLFQCSFPYSMGWHGAPFNGEENQHWQLHAHFYPPLLRSATVRKFMVGYEMLAETQRDLTAEQAAERLRAVSDIHFRESGV”, the “soluble on expression in E. coli” value was “soluble”.

Consider “MKFNIRGENIEVTPALKEYVEKKLSKLERYFDTFPEIKVNLKVYSDKQRVEVTIPFTDLLLRAEETNSDMYAAIDLVVDKIERQIRKHKTKVNRKLREKGSIKTNFILPEAVAVLDEVEEDELELVRTKRFDLKPMDVEEAILQMDMLGHNFFVFTNADTNETNVVYGRKDGKYGLIETKLEHHHHHH”, for which the “soluble on expression in E. coli” value was “soluble”.

As to “MAHHHHHHMEGEEKVELSQLELKLEELQVIWEDVQATCPATHSSKRRNSSDAVASPPRVRSTSGAAQRQGANTQEPLQLPSPQSKHPSLRLLHANNKGKLRCTNPVASEGAVLGGIVSVSPPHSPANASVGACPHGRDGGVRNCVPSRLPPLDASHAQELLKACSNCGVEQRRPTAQFCWNCGTRI”, the “soluble on expression in E. coli” value is given as “not soluble”.

Consider “MKTLLSLGHGYSAQALAHRLLPQGWTVIGTTRSAAKAAELEAGGIEPLLWPGDLGPALARASHILASAAPGREGDPFLATHGAELARADARWVGYLSTTGVYGDHAGGWVDEDTPLTPSTERGQARVQAERQWQALGLPLHIFRLAGIYGPGRGPFEKVRDGTARRIVKPGQVFSRIHVADIAQVLEASMQHPEPGAIYNVCDDDPAPPEDVLGYAAELLGLPPPPEVPYDEAEMTPMARSFYAESKRVRNDRIKARLGIALLHPDYRSGLRSLLAGGD”, for which the “soluble on expression in E. coli” value is “not soluble”.

Regarding “MGSDKIHHHHHHMTDITVAETSAPDTIKAFEERLMQVSDTLPKRLKQCADYVGANKDRIAVSTVAEMAEGAGVQPSAFMRFCQIFGFSGFSEMQKLFRDSLVGGWPDYSTRLHHLRETASGSPSALLAEFVEAGRVSLEGLLQTVDPQLLEQAVACLSTAGMIHIVGLRRSFPVASYIAYAFEKMAVPAMLHSGVGKLESQHAIRDGDVVLAITFAPYSTETLDLVEQVSARGISVVAITDTVVNPLRKLGTITLSVAEVDFGAFRSLSATLCLAIALSVAVGTARQQD”, the “soluble on expression in E. coli” value is “not soluble”.

Regarding “MAHHHHHHMAAACGCRSLLSRDMPRRFPMCVASGTMCRRLCDCRMEGEERRELRERRCQESRWASCRRAHCPPSPAPPCRAPSITPQHRSRRHQHTARQRMPPPSRVRPEGTRPLLRSEESHRVAQRRAQNLLADSAHDTGQWTLSVCVVEDTAVESLLSSGWTVG”, the “soluble on expression in E. coli” value was “not soluble”.

In the case of “SLIENSHVKKDDIWPSGGQMTVKDLTAKYTEGGNAILENISFSISPGQRVGLLGRTGSGKSTLLSAFLRLLNTEGEIQIDGVSWDSITLQQWRKAFGVIPQKVFIFSGTFRKNLDPYEQWSDQEIWKVADEVGLRSVIEQFPGKLDFVLVDGGCVLSHGHKQLMCLARSVLSKAKILLLDQPSAHLDPVTYQIIRRTLKQAFADCTVILCEHRIEAMLECQQFLVIEENKVRQYDSIQKLLNERSLFRQAISPSDRVKLFPHRNSSKCKSKPQIAALKEETEEEVQDTRLENLYFQGDKDCEMKRTTLDSPLGKLELSGCEQGLHEIKLLGKGTSAADAVEVPAPAAVLGGPEPLMQATAWLNAYFHQPEAIEEFPVPALHHPVFQQESFTRQVLWKLLKVVKFGEVISYQQLAALAGNPAATAAVKTALSGNPVPILIPCHRVVSSSGAVGGYEGGLAVKEWLLAHEGHRLGKPGLG”, the “soluble on expression in E. coli” value was “soluble”.

Take “TQQPQQDEMPSPTFLTQVKESLSSYWESAKTAAQNLYEKTYLPAVDEKLRDLYSKSTAAMSTYTGIFTDQVLSVLKGEE”: the “soluble on expression in E. coli” value was “soluble”.

Regarding “EGDIHMSLSHPPIPILELADHIERLKANDNLKFSQEYESIDPGQQFTWEHSNLEVNKPKNRYANVIAYDHSRVLLSAIEGIPGSDYVNANYIDGYRKQNAYIATQGSLPETFGDFWRMIWEQRSATVVMMTKLEERSRVKCDQYWPSRGTETHGLVQVTLLDTVELATYCVRTFALYKNGSSEKREVRQFQFTAWPDHGVPEHPTPFLAFLRRVKTCNPPDAGPMVVHCSAGVGRTGCFIVIDAMLERIKHEKTVDIYGHVTLMRAQRNYMVQTEDQYIFIHDALLEAVTCGNTEVPARNLYAYIQKLTQIETGENVTGMELEFKRLASSKAHTSRFISANLPCNKFKNRLVNIMPYESTRVCLQPIRGVEGSDYINASFLDGYRQQKAYIATQGPLAETTEDFWRMLWEHNSTIVVMLTKLREMGREKCHQYWPAERSARYQYFVVDPMAEYNMPQYILREFKVTDARDGQSRTVRQFQFTDWPEQGVPKSGEGFIDFIGQVHKTKEQFGQDGPISVHCSAGVGRTGVFITLSIVLERMRYEGVVDIFQTVKMLRTQRPAMVQTEDQYQFCYRAALEYLGSFDHYATEGHHHHHH”, the “soluble on expression in E. coli” value is on record as “not soluble”.

With “MSLGIPKHDFYLYQSQWVSVKKKPMVHLLPHWNWENKELASKVADSEGKIPVRAYSNASSVELFLNGKSLGLKTFNKKQTSDGRTYQEGANANELYLEWKVAYQPGTLEAIARDESGKEIARDKITTAGKPAAVRLIKEDHAIAADGKDLTYIYYEIVDSQGNVVPTANNLVRFQLHGQGQLVGVDNGEQASRERYKAQADGSWIRKAFNGKGVAIVKSTEQAGKFTLTAHSDLLKSNQVTVFTGKKEGQEKTVLGTEVPKVQTIIGEAPEMPTTVPFVYSDGSRAERPVTWSSEGHHHHHH”, the “soluble on expression in E. coli” value was “soluble”.

Turning to “KQKRARLIYNPTSGQEIMKKNVAEVLDILESFGYETSAFQTTPRADSAKNEAARASQAGFDLVIAAGGDGTINEVVSGIAPLKRRPKVAIIPTGTTNDFARALKIPRGNPVEATKLIGKNQTIHMDIGRAYND”, the “soluble on expression in E. coli” value is reported as “not soluble”.

In the case of “MKKHIALIFTPINKKYKDALTHYAPPLGLVALANYISERLQNVRISILDGSVTHSMEDIIKFIEDEKPDIVAQSVQLISYENSLVIAKSAHNIGSINVLGGQHATQMADAIIFRQQGLIDYVSIEDGEESLLGLLEERDISEIPNLVFMKDGKINRTKYFQLDLKNAPKLDYSIVDFKPYQKLLNESNFTNPNPINNYLRVYSHKGCGNRKNSVGCVFCGRADKGVRFKSPEKFWEDIKICADEFKADYIFDVGDDFLYNHDWVSKVAEIKPDIRKKFELGIFARANRVNLSIAKKLKKIGVTDVVIGFESGDEEVLRRCNKRDTSTETSLIAADALATAGIDITASFVLGLPGENSESLKKTIKCAEKVVNIITEKLGRPPREMVGNLIEPSPGSIAYNQLLKAYPGKYYLNDYVPLDEMQRDYFKYYFGLDSLKSYLEFRKELNKAAQEIHGLVSFSDSQGWLEDEFV”, the “soluble on expression in E. coli” value is “not soluble”.
